Biological target: T1, ubiquitin (S. pombe (endogenous in S. pombe), UniProt P0CG72 1-76)
T1 construct: ubiquitin of S. pombe, the cut product of the ubiquitin precursors; precipitated with an anti-ubiquitin polyclonal antibody; The ubiquitin may be free, in chains or covalently conjugated; source: endogenous, S. pombe lysate
Assay: co-IP; S. pombe extract (Buffer A: 50mM Hepes-KOH pH 7.5, 5mM MgAc, 100mM KAc, 0.1% NP40, 1mM DTT, 0.5mg/ml BSA) precipitated with anti-ubiquitin rabbit polyclonal antibody overnight at 4°C, then A/G magnetic beads; blot with anti-HA (Cts1-flag-3HA, with MG132) or anti-GFP (Cts1-YFP strains; also in mug30Δ and ubr11Δ backgrounds); IP signal normalised over input
Conditions: partners not purified

T1 sequence (P0CG72 1-76): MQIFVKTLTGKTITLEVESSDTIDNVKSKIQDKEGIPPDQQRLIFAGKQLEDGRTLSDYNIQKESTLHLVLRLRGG

B1: Cts1-YFP K430R (enzyme, S. pombe, UniProt O42644 1-600, looked up)
chain: MKYVLVSGGVISGIGKGVIASSTGLLLKTLGLKVTSIKIDPYMNIDAGTMSPLEHGEVFVLNDGGEVDLDLGNYERYLNVTLTHDNNITTGKVYSNVIQKERRGDYLGKTVQIVPHVTNEIQDWVERVARIPVDQSGEEPDVCIVELGGTVGDIESAAFVEAMRQFQFRVGHENFVSIHVSLVPVINGEQKTKPTQQAIRDLRSLGITPDLIACRCKQPLEKSVIDKISLFCHVGPEQVLAVHDVSSTYHVPQLLEDKLLEYLKIRFALDKISVSRELALAGENMWSSWKHLTQGYDHLFKKVTIVLVGKYTHLQDSYISVIKALEHSAMRCGRKLDLQWVEASHLEASTNTSDPLSYHKAWHLVCSANGILVPGGFGSRGVEGMIAAAKWARENNTPYLGICLGMQVAVIEFARSVCGIEGAFSEEFDRECENNVVVYMPEIDKDKLGGTMRLGLRPTFFQPNSEWSKLRKLHKMVDEVLERHRHRYEINPAFVSRLEQGGISFIGKDERGERMEIIEKRDHPYFVGVQYHPEYLSKPLKPSPPIFGLVAASAGLLDEFIQSGEEVEWSNFSHFNAESALADMNDSVEVTEEATVVTIS
notes: CTP synthase (Cts1) of Schizosaccharomyces pombe with the point mutation K430R, fused to YFP; source: S. pombe K430R strain in a Cts1-YFP background, in cell lysate
B1 was tested, and the “fold reduction of the co-IP signal against Cts1-YFP” value was 6.2 fold.
